Values of other authors, collected in publication PMC12818765.

Tests used:
Asp101 = Asp101 (UniProt position 119, KKIVSDGNGMN)
Asp119 = Asp119 (UniProt position 137, RCKGTDVQAWI)
Asp18 = Asp18 (UniProt position 36, KRHGLDNYRGY)
Asp48 = Asp48 (UniProt position 66, TNRNTDGSTDY)
Asp52 = Asp52 (UniProt position 70, TDGSTDYGILQ)
Asp66 = Asp66 (UniProt position 84, RWWCNDGRTPG)
Asp87 = Asp87 (UniProt position 105, ALLSSDITASV)
Cterm129 = Cterm129 (UniProt position 147, IRGCRL-----)
Glu35 = Glu35 (UniProt position 53, CAAKFESNFNT)
Glu7 = Glu7 (UniProt position 25, VFGRCELAAAM)
His15 = His15 (UniProt position 33, AAMKRHGLDNY)
Lys1 = Lys1 (UniProt position 19, LAALGKVFGRC)
Lys116 = Lys116 (UniProt position 134, WRNRCKGTDVQ)
Lys13 = Lys13 (UniProt position 31, LAAAMKRHGLD)
Lys33 = Lys33 (UniProt position 51, WVCAAKFESNF)
Lys96 = Lys96 (UniProt position 114, SVNCAKKIVSD)
Lys97 = Lys97 (UniProt position 115, VNCAKKIVSDG)
Nterm1 = Nterm1 (UniProt position 19, LAALGKVFGRC)
Tyr20 = Tyr20 (UniProt position 38, HGLDNYRGYSL)
Tyr23 = Tyr23 (UniProt position 41, DNYRGYSLGNW)
Tyr53 = Tyr53 (UniProt position 71, DGSTDYGILQI)
Asp40 = Asp40 (UniProt position 122, RLLLVDTPETK); details: not stated
Asp95 = Asp95 (UniProt position 177, AYIYADGKMVN); details: not stated
Glu10 = Glu10 (UniProt position 92, KKLHKEPATLI); details: not stated
Glu101 = Glu101 (UniProt position 183, GKMVNEALVRQ); details: not stated
Glu122 = Glu122 (UniProt position 204, PNNTHEQHLRK); details: not stated
Glu129 = Glu129 (UniProt position 211, HLRKSEAQAKK); details: not stated
Glu135 = Glu135 (UniProt position 217, AQAKKEKLNIW); details: not stated
Glu43 = Glu43 (UniProt position 125, LVDTPETKHPK); details: not stated
Glu52 = Glu52 (UniProt position 134, PKKGVEKYGPE); details: not stated
Glu57 = Glu57 (UniProt position 139, EKYGPEASAFT); details: not stated
Glu67 = Glu67 (UniProt position 149, TKKMVENAKKI); details: not stated
Glu73 = Glu73 (UniProt position 155, NAKKIEVEFDK); details: not stated
Glu75 = Glu75 (UniProt position 157, KKIEVEFDKGQ); details: not stated
His121 = His121 (UniProt position 203, KPNNTHEQHLR); details: not stated
His124 = His124 (UniProt position 206, NTHEQHLRKSE); details: not stated
His46 = His46 (UniProt position 128, TPETKHPKKGV); details: not stated
His8 = His8 (UniProt position 90, STKKLHKEPAT); details: not stated

## Hen egg-white lysozyme (HEWL, lysozyme C) (Gallus gallus)
Asp101
  pKa: 4.09
Asp119
  pKa: 3.20
Asp18
  pKa: 2.66
Asp48
  pKa: 1.60
Asp52
  pKa: 3.68
Asp66
  pKa: 0.90
Asp87
  pKa: 2.07
Cterm129
  pKa: 2.75
Glu35
  pKa: 6.20
Glu7
  pKa: 2.85
His15
  pKa: 5.36
Lys1
  pKa: 10.90
Lys116
  pKa: 10.40
Lys13
  pKa: 10.60
Lys33
  pKa: 10.60
Lys96
  pKa: 10.80
Lys97
  pKa: 10.30
Nterm1
  pKa: 7.90
Tyr20
  pKa: 10.30
Tyr23
  pKa: 9.80
Tyr53
  pKa: 12.10

## Staphylococcal nuclease (SNase), form used for the Asp/Glu pKa values (Staphylococcus aureus)
Asp40
  pKa: 3.87
Asp95
  pKa: 2.16
Glu10
  pKa: 2.82
Glu101
  pKa: 3.81
Glu122
  pKa: 3.89
Glu129
  pKa: 3.75
Glu135
  pKa: 3.76
Glu43
  pKa: 4.32
Glu52
  pKa: 3.93
Glu57
  pKa: 3.49
Glu67
  pKa: 3.76
Glu73
  pKa: 3.31
Glu75
  pKa: 3.26

## Staphylococcal nuclease (SNase), form used for the histidine pKa values (Staphylococcus aureus)
His121
  pKa: 5.30
His124
  pKa: 5.73
His46
  pKa: 5.86
His8
  pKa: 6.52
